What was measured:
[1] = biological target: T1, acetone carboxylase (XaAC) (Xanthobacter versatilis, UniProt Q8RM03+Q8RM04, Q8RM03:E89D); experiment: X-band EPR of active-site Mn(II); format: binding; conditions: 10 mM AMP, 1 mM MgCl2; 50 mM Tris, pH 7.6, 150 mM NaCl; 12 K
T1 construct: gene acxA; recombinant from E. coli, His-NTA then Q-sepharose; 360 kDa α2β2γ2 heterohexamer with Mn(II); ATP/AMP site in beta subunit, Mn(II) site in alpha subunit; with Acetone carboxylase gamma subunit

[2] = biological target: T2, acetone carboxylase (XaAC) (Xanthobacter versatilis, UniProt Q8RM03+Q8RM04, Q8RM03:E89A); experiment: differential scanning fluorimetry, SYPRO orange; format: binding; conditions: 10 mM AMP; 100 mM Tris, 100 mM KCl, pH 7.6; absolute Tm, not a shift
T2 construct: gene acxA; recombinant from E. coli, His-NTA then Q-sepharose; 360 kDa α2β2γ2 heterohexamer with Mn(II); ATP/AMP site in beta subunit, Mn(II) site in alpha subunit; with Acetone carboxylase gamma subunit

[3] = biological target: T3, acetone carboxylase (XaAC) (Xanthobacter versatilis, UniProt Q8RM03+Q8RM04); experiment: differential scanning fluorimetry, SYPRO orange; format: binding; parameters: gene acxA; recombinant from E. coli, His-NTA then Q-sepharose; 360 kDa α2β2γ2 heterohexamer with Mn(II); ATP/AMP site in beta subunit, Mn(II) site in alpha subunit; with Acetone carboxylase gamma subunit; conditions: 10 mM AMP; 100 mM Tris, 100 mM KCl, pH 7.6; absolute Tm, not a shift
[4] = biological target: T3, acetone carboxylase (XaAC); parameters: gene acxA; conditions: only tested together with AMP (10 mM AMP-acetate), 1 mM MgCl2, pH 7.6; Mn(II) site
[5] = biological target: T4, Xanthobacter autotrophicus acetone carboxylase α subunit (Xanthobacter autotrophicus, UniProt Q8RM03 1-776); experiment: SEC + native gel or EMSA; complexes co-purified from E. coli lysate (His-NTA, then Q-sepharose), stored in 50 mM Tris pH 7.6, 150 mM NaCl, 10% glycerol, then tested by size exclusion chromatography and native gel for integrity; conditions: both partners purified
T4 construct: acetone carboxylase alpha subunit, Xanthobacter autotrophicus; holds the Mn(II) site (H150, D153, H175, E89); A His-NTA column was used, so one subunit probably carries a His tag; also called XaAC α; AC alpha subunit; source: E. coli, purified as the complex (His-NTA, Q-sepharose)
T4 sequence: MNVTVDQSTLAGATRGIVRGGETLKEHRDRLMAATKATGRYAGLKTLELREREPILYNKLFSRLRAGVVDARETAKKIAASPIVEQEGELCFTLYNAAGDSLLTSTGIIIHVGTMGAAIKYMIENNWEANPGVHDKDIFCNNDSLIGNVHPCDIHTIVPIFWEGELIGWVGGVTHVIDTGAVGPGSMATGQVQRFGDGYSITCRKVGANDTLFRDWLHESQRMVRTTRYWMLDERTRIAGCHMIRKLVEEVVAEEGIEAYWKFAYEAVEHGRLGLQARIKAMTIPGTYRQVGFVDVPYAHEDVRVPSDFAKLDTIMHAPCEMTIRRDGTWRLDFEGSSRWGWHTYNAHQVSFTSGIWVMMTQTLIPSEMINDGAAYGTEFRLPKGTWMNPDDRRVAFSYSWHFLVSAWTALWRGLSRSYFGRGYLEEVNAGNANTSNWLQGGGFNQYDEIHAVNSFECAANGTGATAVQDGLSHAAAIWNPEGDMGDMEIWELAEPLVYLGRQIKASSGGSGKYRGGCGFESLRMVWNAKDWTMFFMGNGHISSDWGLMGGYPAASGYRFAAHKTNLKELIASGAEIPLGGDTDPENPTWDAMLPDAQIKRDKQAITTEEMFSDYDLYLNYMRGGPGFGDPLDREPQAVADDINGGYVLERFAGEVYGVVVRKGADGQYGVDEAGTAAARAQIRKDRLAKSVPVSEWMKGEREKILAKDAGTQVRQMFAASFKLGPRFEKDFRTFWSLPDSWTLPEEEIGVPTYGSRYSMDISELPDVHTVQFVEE

[6] = biological target: T5, Xanthobacter autotrophicus acetone carboxylase α subunit, αE89A variant (Xanthobacter autotrophicus, UniProt Q8RM03 1-776, αE89A); experiment: as above; conditions: both partners purified
T5 construct: acetone carboxylase alpha subunit, Xanthobacter autotrophicus, glutamate 89 substituted by alanine; The PDB entries are of the wild-type parent; also called E89A XaAC; E89A AC; source: E. coli, purified as the complex (His-NTA, Q-sepharose)
T5 sequence: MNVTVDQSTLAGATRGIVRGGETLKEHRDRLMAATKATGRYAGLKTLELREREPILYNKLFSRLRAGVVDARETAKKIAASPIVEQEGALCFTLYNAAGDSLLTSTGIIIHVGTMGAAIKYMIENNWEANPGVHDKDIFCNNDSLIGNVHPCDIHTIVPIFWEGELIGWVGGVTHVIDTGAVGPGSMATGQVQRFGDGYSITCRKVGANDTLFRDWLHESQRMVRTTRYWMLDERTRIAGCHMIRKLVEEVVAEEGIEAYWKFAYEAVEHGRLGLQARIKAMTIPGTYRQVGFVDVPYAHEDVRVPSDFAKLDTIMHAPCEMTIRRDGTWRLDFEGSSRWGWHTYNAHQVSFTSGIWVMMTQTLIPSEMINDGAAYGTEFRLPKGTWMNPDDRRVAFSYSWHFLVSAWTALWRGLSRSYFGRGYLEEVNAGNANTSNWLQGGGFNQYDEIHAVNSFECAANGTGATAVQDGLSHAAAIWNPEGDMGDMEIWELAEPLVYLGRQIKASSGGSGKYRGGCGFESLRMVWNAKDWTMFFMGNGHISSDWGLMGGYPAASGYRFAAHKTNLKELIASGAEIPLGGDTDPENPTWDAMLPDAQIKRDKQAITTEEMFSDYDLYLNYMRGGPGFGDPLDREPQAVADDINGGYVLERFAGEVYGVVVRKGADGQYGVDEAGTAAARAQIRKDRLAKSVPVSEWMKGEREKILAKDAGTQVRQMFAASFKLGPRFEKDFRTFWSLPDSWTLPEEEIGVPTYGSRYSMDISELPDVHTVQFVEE

[7] = biological target: T6, Xanthobacter autotrophicus acetone carboxylase α subunit, αE89D variant (Xanthobacter autotrophicus, UniProt Q8RM03 1-776, αE89D); experiment: as above; conditions: both partners purified
T6 construct: acetone carboxylase alpha subunit, Xanthobacter autotrophicus, glutamate 89 substituted by aspartate; The PDB entries are of the wild-type parent; also called E89D XaAC; E89D AC; source: E. coli, purified as the complex (His-NTA, Q-sepharose)
T6 sequence: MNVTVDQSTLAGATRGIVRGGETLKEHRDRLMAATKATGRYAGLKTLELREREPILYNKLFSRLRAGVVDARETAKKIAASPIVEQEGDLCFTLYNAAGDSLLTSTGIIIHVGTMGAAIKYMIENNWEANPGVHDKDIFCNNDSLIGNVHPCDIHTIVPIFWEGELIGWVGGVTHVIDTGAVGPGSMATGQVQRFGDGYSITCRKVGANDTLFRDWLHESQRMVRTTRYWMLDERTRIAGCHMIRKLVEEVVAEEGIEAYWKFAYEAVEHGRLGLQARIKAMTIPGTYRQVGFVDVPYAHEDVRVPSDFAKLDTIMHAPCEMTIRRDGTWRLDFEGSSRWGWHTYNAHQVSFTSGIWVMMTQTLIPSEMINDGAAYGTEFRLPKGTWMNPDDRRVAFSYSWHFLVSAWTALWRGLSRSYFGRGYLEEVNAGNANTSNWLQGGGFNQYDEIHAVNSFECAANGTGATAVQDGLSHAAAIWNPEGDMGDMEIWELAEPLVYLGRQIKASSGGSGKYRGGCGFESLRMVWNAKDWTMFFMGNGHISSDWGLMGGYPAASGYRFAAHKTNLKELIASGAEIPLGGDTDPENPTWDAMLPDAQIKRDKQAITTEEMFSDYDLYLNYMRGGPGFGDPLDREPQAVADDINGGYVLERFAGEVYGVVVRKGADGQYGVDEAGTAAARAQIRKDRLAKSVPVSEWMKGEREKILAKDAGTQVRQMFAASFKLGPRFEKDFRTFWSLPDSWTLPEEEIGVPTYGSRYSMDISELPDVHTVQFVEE

Tm [2] | Tm [3] | binding result [5] | binding result [6] | binding result [7] | Molecule | X-band EPR of active-site Mn(II) [1] | peptide-level and intact-protein HDX-MS [4]
76 ± 0.4 °C | 76.5 ± 0.5 °C | – | – | – | Nc1ncnc2c1ncn2[C@@H]1O[C@H](COP(=O)(O)O)[C@@H](O)[C@H]1O [AMP] | αE89D and the WT AC respond similarly to AMP binding | –
– | – | binds | binds | binds | Xanthobacter autotrophicus acetone carboxylase γ subunit (enzyme, acetone carboxylase gamma subunit, Xanthobacter autotrophicus; also called XaAC γ; AC gamma subunit; source: E. coli, purified as the complex (His-NTA, Q-sepharose)) MAYTRSKIVDLVDGKIDPDTLHQMLSTPKDPERFVTYVEILQERMPWDDKIILPLGPKLFIVQQKVSKKWTVRCECGHDFCDWKDNWKLSARVHVRDTPQKMEEIYPRLMAPTPSWQVIREYFCPECGTLHDVEAPTPWYPVIHDFSPDIEGFYQEWLGLPVPERADA | – | –

More lines, now with the values behind:

Molecule | Tm [2] | Tm [3] | binding result [5] | binding result [6] | binding result [7] | X-band EPR of active-site Mn(II) [1] | peptide-level and intact-protein HDX-MS [4]
CC(=O)O [acetate] | – | – | – | – | – | – | when AMP and acetate were both present, seven of the eight peptides displayed opposite exchange patterns
Xanthobacter autotrophicus acetone carboxylase β subunit (enzyme, acetone carboxylase beta subunit, Xanthobacter autotrophicus; also called XaAC β; AC beta subunit; source: E. coli, purified as the complex (His-NTA, Q-sepharose)) MNVPVGHLRNVQVLGIDAGGTMTDTFFVDQDGDFVVGKAQSTPQNEALGLIASSEDGLANWGMSLHEALAQLQTGVYSGTAMLNRVVQRKGLKCGLIVNRGMEDFHRMGRAVQSHLGYAYEDRIHLNTHRYDPPLVPRHLTRGVVERTDMIGTQVIPLREDTARDAARDLIAADAEGIVISLLHSYKNPENERRVRDIVLEEVEKSGKKIPVFASADYYPVRKETHRTNTTILEGYAAEPSRQTLSKISNAFKERGTKFDFRVMATHGGTISWKAKELARTIVSGPIGGVIGAKYLGEVLGYKNIACSDIGGTSFDVALITQGEMTIKNDPDMARLVLSLPLVAMDSVGAGAGSFIRLDPYTRAIKLGPDSAGYRVGVCWKESGIETVTISDCHMVLGYLNPDNFLGGAVKLDRQRSVDAIKAQIADPLGLSVEDAAAGVIELLDSDLRDYLRSMISGKGYSPASFVCFSYGGAGPVHTYGYTEGLGFEDVIVPAWAAGFSAFGCAAADFEYRYDKSLDINMPTETPDTDKEKAAATLQAAWEELTKNVLEEFKLNGYSADQVTLQPGYRMQYRGQLNDLEIESPLAQAHTAADWDQLTDAFNATYGRVYAASARSPELGYSVTGAIMRGMVPIPKPKIPKEPEEGETPPESAKIGTRKFYRKKRWVDAQLYHMESLRPGNRVMGPAVIESDATTFVVPDGFETWLDGHRLFHLREV | – | – | binds | binds | binds | – | –

Reference: publication PMC12250083 (International Journal of Molecular Sciences, 2025)
